In paper PMC10570377, “DARPins detect the formation of hetero-tetramers of p63 and p73 in epithelial tissues and in squamous cell carcinoma” (Cell Death & Disease, 2023):

B1: p63 oligomerization domain (OD), homo-tetramer (domain or fragment)
chain: DDELLYLPVRGRETYEMLLKIKESLELMQYLPQHTIETYRQQQQQQHQHLLQKQTSIQS
notes: p63 oligomerization domain (OD), wild type; also called p63 OD; p63 homo-OD; source: E. coli, purified; not shown: His10, N-terminal, cleaved

Experiments:
[1] = target: the molecule itself; assay: crystal structure; complexes of OD hetero-tetramer and DARPin mixed 1:2, isolated by SEC, sitting drop at 20 °C
[2] = target: B1; assay: NMR titration; [15N,1H] BEST-TROSY spectra at 25 °C; equimolar mixture of unlabelled p63 OD and 15N-Lys-labelled p73 OD, DARPin added at one ratio (2.4:1); 20 mM K2HPO4 pH 7.8, 100 mM KCl, 0.5 mM EDTA; details: both partners purified

binding result [2] | Binder | binding result [1]
binds | DEDTYYLQVRGRENFEILMKLKESLELMELVPQPLVDSYRQQQQLLQR (domain or fragment, p73 oligomerization domain (OD), wild type; 15N-labelled on lysine for NMR; also called p73 OD; p73 homo-OD; source: E. coli, purified; not shown: His10, N-terminal, cleaved) [p73 oligomerization domain (OD), homo-tetramer] | binds
 | DEDTYYLQVRGRKNFEILMKLKESLELMELVPQPLVDSYRQQQQLLQR (domain or fragment, UniProt O15350 351-398, looked up, p73 oligomerization domain (OD), amino acids 351-398, E363K; The p73 chain of m3; also called p73 (amino acids 351–398, E363K); p73 OD E363K; source: E. coli BL21(DE3) Rosetta, purified; not shown: His10, N-terminal, cleaved) [p73 oligomerization domain E363K] | binds
 | B1 | binds
